Molecular target: anti-PcrV scFv conjugated with the mouse IgG1 hinge, CH2 and CH3 domains, scFv-m166-mFc (recombinant protein) (mouse)
Assay: non-reducing SDS-PAGE with immunoblot

anti-PcrV scFv conjugated with the mouse IgG1 hinge, CH2 and CH3 domains, scFv-m166-mFc (recombinant protein) (Fc fusion)
stoichiometry N: 2

Source: paper PMC13066097
